Target: T1, Flag-tagged full-length CHDP-1 (C. elegans, UniProt P91027 1-338)
T1 construct: CHDP-1 (C10G11.7), single type III calponin homology domain protein of C. elegans; fragment limits show 338 residues; Cloned into a modified pFLAG-CMV-2 vector; In the self-association co-IP the second copy carried Myc (modified pcDNA3.1/myc-HIS(-) vector) in place of Flag; also called FLAG-CHDP-1; C10G11.7; source: HEK293T, transfected, in lysate
T1 sequence (looked up): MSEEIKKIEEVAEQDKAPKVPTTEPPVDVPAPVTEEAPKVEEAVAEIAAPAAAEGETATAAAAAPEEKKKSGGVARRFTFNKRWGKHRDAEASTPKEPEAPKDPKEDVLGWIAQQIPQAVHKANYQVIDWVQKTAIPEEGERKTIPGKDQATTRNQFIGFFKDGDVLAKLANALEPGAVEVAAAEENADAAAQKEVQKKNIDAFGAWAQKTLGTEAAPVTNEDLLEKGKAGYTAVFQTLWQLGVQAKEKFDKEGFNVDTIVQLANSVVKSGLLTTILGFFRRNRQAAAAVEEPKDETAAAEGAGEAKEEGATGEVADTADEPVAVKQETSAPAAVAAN
Assay: co-IP; Flag-CHDP-1 and Myc-CED-10 expressed in HEK293T cells, affinity purified, mixed together, then co-immunoprecipitated with Flag or Myc antibodies
Settings: both partners purified

B1: Myc-tagged CED-10 (natural protein)
chain: not shown
notes: CED-10, Rac1 homolog (Rho family small GTPase) of C. elegans; cDNA from Dr. Yuji Kohara; Cloned into a modified pcDNA3.1/myc-HIS(-) vector; also called Rac1/CED-10; worm Rac1 homolog; source: HEK293T, transfected, in lysate
B1: binds.
